Measured values as given in patent publication US20230416364A1.

B1: GS_hCD25.d (protein, part only; not given: Fusion partner and linker, part only)
chain, part: ELCDDDPPEIPHATFKAMAYKEGTMLNCECKRGFRRIKSGSLYMLCTGNSSHSSWDNQCQCTSSATRNTTKQVTPQPEEQKERKTTEMQSPMQPVDQASLPGHCREPPPWENEATERIYHFVVGQMVYYQCVQGYRALHRGPAESVCKMTHGKTRWTQPQLICTG
B2: GS_hCD25.b (protein, part only; not given: Fusion partner and linker, part only)
chain, part: ELCDDDPPEIPHATFKAMAYKEGTMLNCECKRGFRRIKSGSLYMLCTGNSSHSSWDNQCQCTSSATRNTTKQVTPQPEEQKERKTTEMQSPMQPVDQASLPGHCREPPPWENEATERIYHFVVGQMVYYQCVQGYRALHRGPAESVCKMTHGKTRWTQPQLICTGEMETSQFPGEEKPQASPEGRPESETSCLVTTTDFQIQ

Target: human IL-2 (Miltenyi) (human) (UniProt P60568)
Sequence (P60568 21-153 limits assumed): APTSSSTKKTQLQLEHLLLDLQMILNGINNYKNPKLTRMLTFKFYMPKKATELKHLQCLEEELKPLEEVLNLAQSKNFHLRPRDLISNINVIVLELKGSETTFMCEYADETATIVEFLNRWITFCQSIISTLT
Assay: SPR

Binder | Kd [nM] | koff [s⁻¹] | kon [M⁻¹ s⁻¹]
B1 | 12 | 0.063 | 5.4e+06
B2 | 12 | – | 1.1e+07
